Format in all cases: biochemical, Streptomyces cinnamoneus
Substrate in series [1]: COC(=O)/C=C/c1ccc(O)c(O)c1
Nature of the series: HPLC of released phenolic acid. The note with it: 50 mM Tris maleate, 40 °C, 30 min. From the text:
(§1) HPLC of released phenolic acid on R43

Substrate in series [2]: COC(=O)/C=C/c1ccc(O)cc1
Put plainly: HPLC of released phenolic acid. The note with it: 50 mM Tris maleate, 40 °C, 30 min.
From the text: as §1

Substrate in series [3]: CCOC(=O)/C=C/c1ccc(O)c(OC)c1
Put plainly: HPLC of released phenolic acid. To be noted: 50 mM Tris maleate, 40 °C, 30 min.
From the text: as §1

Substrate in series [4]: COC(=O)/C=C/c1cc(OC)c(O)c(OC)c1
Nature of the series: HPLC of released phenolic acid. The note with it: 50 mM Tris maleate, 40 °C, 30 min.
From the text: as §1

Substrate in series [5]: COC(=O)/C=C/c1ccc(O)c(OC)c1
Put plainly: HPLC of released phenolic acid. The note with it: 50 mM Tris maleate, 40 °C, 30 min.
From the text: as §1

Substrate in the series “purified protein”: CCCC(=O)Oc1ccc([N+](=O)[O-])cc1
Nature of the series: purified protein. The note with it: general esterase assay.

Substrate in series [6]: COC(=O)/C=C/c1ccc(O)c(O)c1
Put plainly: HPLC of released phenolic acid. To be noted: 50 mM Tris maleate, 50 °C, 30 min. From the text:
(§2) HPLC of released phenolic acid on R18

Substrate in series [7]: COC(=O)/C=C/c1ccc(O)cc1
Put plainly: HPLC of released phenolic acid. The note with it: 50 mM Tris maleate, 50 °C, 30 min.
From the text: as §2

Substrate in series [8]: CCOC(=O)/C=C/c1ccc(O)c(OC)c1
Nature of the series: HPLC of released phenolic acid. The note with it: 50 mM Tris maleate, 50 °C, 30 min.
From the text: as §2

Substrate in series [9]: COC(=O)/C=C/c1cc(OC)c(O)c(OC)c1
Nature of the series: HPLC of released phenolic acid. The note with it: 50 mM Tris maleate, 50 °C, 30 min.
From the text: as §2

Substrate in series [10]: COC(=O)/C=C/c1ccc(O)c(OC)c1
Nature of the series: HPLC of released phenolic acid. To be noted: 50 mM Tris maleate, 50 °C, 30 min.
From the text: as §2

B1: R43 (Streptomyces cinnamoneus) (protein)
chain: MEIRTAQGIVRGELTAGGLAVFRGVPYARPPVGNLRFAAPQPPLPWDGVRDALAFGPPPPQSGPARVPGDPAGTDWLTLNVWTPDPGGSGLPVLVWIPGGAYVSGAAGDPLYDAALLAGQGGLVVVTLNYRLGAEGFAHLPGVPDNRGLLDQLAALDWVRQNIARFGGNPDRVTLCGQSAGAGSIATLLAAPRAAGLFRRAITQSVPGLYATCALAADVTADLAARLGTTPTTAGLAAVSPQRLADAIDPLMEELPARIDRWGRLARSGVPFLPVVDGDVVPDVPWRSLRDGRASETDLLTGHTRDEFRPFLMLSGHPEKITDEDATAALRALAPAPDGERAYRAAHPDASPAALFELLYSDVLFRMPSLHLADAHSAGGGTAHLYELCLSAPALGGALGAAHGLDVSLLFGTYSAPAARLFYGEEPPPEDVLALGDDIRRSWASFAAHGDPGWPAYRVTDGRLTGLLDTGTGAGPYPEDASRRIWEGHGVEPFDLV
notes: full length, no signal peptide, secreted from Streptomyces expression host (pTONA vector); 498 aa; about 52 kDa; N-terminus at residue 1; monomer; powdered enzyme
In general, Km refers to the substrate concentration at which the rate is half of its maximum. As usually defined, the Vmax is the rate approached at saturating substrate. Consider B1, for which the Km came to 2.61 ± 0.25 mM in [1]; 3.00 ± 0.26 mM in series [2]; 1.96 ± 0.14 mM in series [3]; 0.54 ± 0.07 mM in [4]; 4.41 ± 0.36 mM in series [5]; 0.17 ± 0.05 mM in “purified protein”. The maximal velocity (Vmax) was determined as 0.0021 µmol/min/mg in series [1]; 0.00817 µmol/min/mg in series [2]; 0.0153 µmol/min/mg in series [3]; 0.00104 µmol/min/mg in [4]; 0.042 µmol/min/mg in series [5]; 0.00056 µmol/min/mg in “purified protein”.

B2: R18 (Streptomyces cinnamoneus) (protein)
chain: ATAGQEVPAPATRIPLGTKTLHLVDASRQDPWKPSAGNRELMVTLWYPSLPSREPAAPYVSKPLSRAVLGNDVLAGVRTHAVAGARPAPVPRPLVVLSPGFGMSRITLTALGEDLASRGYAVAAVDHTYEAPVEFPGGRIEKCTLCDDSRMDPGAVVRNRAKDLRFVLDRLTGPGSELRVDARRIGVAGHSIGGASAVEVMREDRRVDAAINLDGNFFTEPPAEGLNKPVLLLGARRSGLPEPQENWERAWKQLTGWKRWLDVPAGGHMTFTDVPWIVDRFGMPGQIPPEQVEGQLGTVSAARATAVTRNYVAAFFDRHLRGRPSPLLDRPSSAHPEVTFMK
notes: secreted from Streptomyces expression host (pTONA vector), signal peptide removed; mature N-terminus at residue 42 of 383; about 38 kDa; monomer; powdered enzyme
Regarding B2, the Km turned out to be 3.31 ± 0.31 mM in series [6]; 4.31 ± 0.26 mM in [7]; 4.28 ± 0.36 mM in [8]; 9.39 ± 1.43 mM in [9]; 4.99 ± 1.72 mM in series [10]. Moreover, the Vmax in series [6] is 0.00752 µmol/min/mg; in [7], 0.0262 µmol/min/mg; in [8], 0.0406 µmol/min/mg; in [9], 0.0367 µmol/min/mg; in series [10], 0.0523 µmol/min/mg.
